Source: patent US7816543B2, “Leptomycin derivatives” (Sanofi-Aventis, priority 2006, dated 2010)

Experiments:
[1] = test system: COLO 205 (CanAg antigen-positive) cancer cells; assay: Cytotoxicity evaluation on COLO 205 cells; format: cell-based, human; conditions: COLO 205 (CanAg antigen-positive) cells, FIG. 1
Description: (§1) The human cancer cell lines HL60, Namalwa, A-375, COLO205 and Ramos were obtained from the American Type Culture Collection (ATCC). Kara is a murine tumor cell line that has been stably transfected with the human CD33 antigen.

[2] = test system: A375 cells; assay: Cytotoxicity evaluation on A375 cells; format: cell-based, human; conditions: FIG. 1
Description: as §1

B1: huC242-SSNPB-leptomycin of example 6 (conjugate, chains of the INN, looked up)
VH: QVQLVQSGAEVKKPGETVKISCKASDYTFTYYGMNWVKQAPGQGLKWMGWIDTTTGEPTYAQKFQGRIAFSLETSASTAYLQIKSLKSEDTATYFCARRGPYNWYFDVWGQGTTVTVSS
VL: DIVMTQSPLSVPVTPGEPVSISCRSSKSLLHSNGNTYLYWFLQRPGQSPQLLIYRMSNLVSGVPDRFSGSGSGTAFTLRISRVEAEDVGVYYCLQHLEYPFTFGPGTKLELK
modifications: SSNPB-leptomycin conjugate
- IC50 [1]: 0.13 nM
- IC50 [2]: > 5 nM
